Test results taken from PMC4348336 (Biochemistry, 2015).

Biological target: Creatine kinase brain type (CKB) (UniProt P12277 1-381)
Assay: SEC-MALS

Creatine kinase brain type (CKB), sequence (P12277 whole entry): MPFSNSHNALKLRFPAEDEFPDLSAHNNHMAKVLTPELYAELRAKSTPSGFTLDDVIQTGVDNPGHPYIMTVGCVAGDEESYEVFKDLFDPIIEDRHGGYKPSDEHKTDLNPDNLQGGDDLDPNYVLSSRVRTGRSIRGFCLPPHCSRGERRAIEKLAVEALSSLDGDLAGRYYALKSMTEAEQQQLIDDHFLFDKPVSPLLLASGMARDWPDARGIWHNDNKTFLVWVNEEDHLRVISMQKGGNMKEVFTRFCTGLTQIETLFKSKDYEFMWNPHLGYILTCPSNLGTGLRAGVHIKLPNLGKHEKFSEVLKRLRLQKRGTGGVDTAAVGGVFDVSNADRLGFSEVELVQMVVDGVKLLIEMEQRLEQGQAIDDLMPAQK

B1: ASB9(1-252) (domain or fragment, UniProt Q96DX5 1-252, looked up)
chain: MDGKQGGMDGSKPAGPRDFPGIRLLSNPLMGDAVSDWSPMHEAAIHGHQLSLRNLISQGWAVNIITADHVSPLHEACLGGHLSCVKILLKHGAQVNGVTADWHTPLFNACVSGSWDCVNLLLQHGASVQPESDLASPIHEAARRGHVECVNSLIAYGGNIDHKISHLGTPLYLACENQQRACVKKLLESGADVNQGKGQDSPLHAVARTASEELACLLMDFGADTQAKNAEGKRPVELVPPESPLAQLFLER
- stoichiometry N: 1 ASB9 per CK dimer
